Assay: soluble on expression in E. coli; label from the status in PepcDB or PDB records

Sequence	soluble on expression in E. coli
MSLTDPVKIYQRKWIVGGWMKRSEIRKALEAWFDVERYEAIETLTLQQFYVEVERRILAYRMLLSRNTIPTFNRLMLDDYRNKILSGEIFFSGDTATIGHELARTYAVNPTTRSHAQFYAKTLSLTEATPELSGLSQSEFLSEYLKETSLNNLSRITVDIHLEEASTEEIIEHLKVLIPQWKRQLKMTSPAPREYRFGKSTFRKIIDYRLIPMMDLIFWGEDNGIKIPLSLISSLLHEDSDNDRDEGMLKATDYPLAMAFLTDASYLKSLEDYMMENNHLKDSPVEKHVEDDRNEGHHHHHH	not soluble
MAEARSQPSAGPQLNALPDHSPLLQPGLAALRRRAREAGVPLAPLPLTDSFLLRFLRARDFDLDLAWRLLKNYYKWRAECPEISADLHPRSIIGLLKAGYHGVLRSRDPTGSKVLIYRIAHWDPKVFTAYDVFRVSLITSELIVQEVETQRNGIKAIFDLEGWQFSHAFQITPSVAKKIAAVLTDSFPLKVRGIHLINEPVIFHAVFSMIKPFLTEKIKERIHMHGNNYKQSLLQHFPDILPLEYGGEEFSMEDICQEWTNFIMKSEDYLSSISESIQ	soluble
MQETMLDLRTVYECNRCLGCKTLHPQVGIINLENPSLEEDAVKFEFYAVLLIEDCPGGCCCCGRKYYDYSNATMVFLTPGEIFRMSKENTLPDKGYLLAFHPDLLFRTSLKNHIKNYTFFHYRKEEALHLSRRETEKVTCCLSNIEDELHHPIDTHSSIILSRHIELLLDYCTRYYERQFITRENKNKALLENMERLFVEYIASGRLQGGKLPTSGYMAGELDLSVAYFDDLLKFETGKTLEEYLQLKRLDIARHMLLQDGHTPAAVARKLGYPNVQCFSVLFKKITGVAPSDYRLSQN	not soluble
GLIVDTRDVEERVHVMRKTKLAPTVAHGVFNPEFGPAALSNKDPRLNEGVVLDEVIFSKHKGDTKMSAEDKALFRRCAADYASRLHSVLGTANAPLSIYEAIKGVDGLDAMEPDTAPGLPWALQGKRRGALIDFENGTVGPEVEAALKLMEKREYKFACQTFLKDEIRPMEKVRAGKTRIVDVLPVEHILYTRMMIGRFCAQMHSNNGPQIGSAVGCNPDVDWQRFGTHFAQYRNVWDVDYSAFDANHCSDAMNIMFEEVFRTEFGFHPNAEWILKTLVNTEHAYENKRITVEGGMPSGCSATSIINTILNNIYVLYALRRHYEGVELDTYTMISYGDDIVVASDYDLDFEALKPHFKSLGQTITPADKSDKGFVLGHSITDVTFLKRHFHMDYGTGFYKPVMASKTLEAILSFARRGTIQEKLISVAGLAVHSGPDEYRRLFEPFQGLFEIPSYRSLYLRWVNAVCGDAAALE	soluble
MGKEALLNLYRIEYRPKDTTFTVFKPTHEIQKEKLNKVRWRVFLQTGLPTFRREDEFWCAGKVEKDTLYLTLSNGEIVELKRVGEEEFRGFQNERECQELFRDFLTKTKVKDKFISDFYKKFRDKITVQGKNRKIALIPEVNEKVLKSEEGYFLLHLDLKFRIQPFETLQTLLERNDFNPKRIRVKPIGIDFVGRVQDVFKAKEKGEEFFRLCMERSTHKSSKKAWEELLKNRELREKAFLVVLEKGYTYPATILKPVLTYENLEDEERNEVADIVRMEPGKRLNLIRYILRRYVKALRDYGWYISPEEERAKGKLNFKDTVLDAKGKNTKVITNLRKFLELCRPFVKKDVLSVEIISVSVYKKLEWRKEEFLKELINFLKNKGIKLKIKGKSLILAQTREEAKEKLIPVINKIKDVDLVIVFLEEYPKVDPYKSFLLYDFVKRELLKKMIPSQVILNRTLKNENLKFVLLNVAEQVLAKTGNIPYKLKEIEGKVDAFVGIDISRITRDGKTVNAVAFTKIFNSKGELVRYYLTSYPAFGEKLTEKAIGDVFSLLEKLGFKKGSKIVVHRDGRLYRDEVAAFKKYGELYGYSLELLEIIKRNNPRFFSNEKFIKGYFYKLSEDSVILATYNQVYEGTHQPIKVRKVYGELPVEVLCSQILSLTLMNYSSFQPIKLPATVHYSDKITKLMLRGIEPIKKEGDIMYWL	soluble
MNVACPALLIAGPASGQGKTTLTAALARHHVRQGRRVRVFKVGPDFLDPMLLQAASGQPVYQLDLWLVGEDQCRSLLFEAARSADLILIEGVMGLFDGTPSAADLAQTFGVPVLAVIDASGMAETFGAVAHGLATHRPGLPFAGVVANRVASPGHADRLRASLPGAIPFRGAFFRQPDAGFPDRHLGLVQAPELGDLDRRLDTLADAVAGTGLADLPDSVPFAPESAAVPPRLLEGVRIGIARDAAFSFLYPANLDLLRAMGATPVFFSPLGDRSLPEVDSVYLPGGYPELHLDTLAGNGGMKESLREHVAAGKPLLAECGGLLYLLEELADQNGRTSAMCGILPGRAKMQTRLAGLGLQSAAFRSGTLRAHTFHYSRLETPLSPLLMAERRRGGSAGEAVYRQGRLTASYLHWYLPSCPEAAAELLRPLEHHHHHH	soluble
MNKLTIIVTYYNAEEYITGCLESIKQQRTQDFNLIIVNDGSTDQSKKLMDEAIKDYDKNIRFIDLDENSGHAHARNIALEEVETPYFMFLDADDELASYAITFYLEKFNNTDGLIAPIHSFTTQRPQFVDLDRVRVEYFNAKENINSFLRKQSACNIIFRTAIVRAHHIRFNENLNTYVDWSFVLEYMKYVNKFVRIFNFPFYFRGEVYDPFETLTLSEQNFDILFKDYVNSFYDAIKRATNPKVREFIVTKMGNKIANEFEPTRYDINERYQTHKDTLVELSKFLHVHLVKNQKLINKIETILLMNNETDKAFKVNQFRKTLRHVKNIVLRRKNKERSLYDLTDKEDNVKPKTIVFESFGGKNYSDSPKYIYEYMQKYYPNYRYIWSFKNPDKNVVPGSAEKVKRNSAEYYQAYSEASHWVSNARTPLYLNKKENQTYIQTWHGTPLKRLANDMKVVRMPGTTTPKYKRNFNRETSRWDYLISPNRYSTEIFRSAFWMDEERILEIGYPRNDVLVNRANDQEYLDEIRTHLNLPSDKKVIMYAPTWRDDEFVSKGKYLFELKIDLDNLYKELGDDYVILLRMHYLISNALDLSGYENFAIDVSNYNDVSELFLISDCLITDYSSVMFDYGILKRPQFFFAYDIDKYDKGLRGFYMNYMEDLPGPIYTEPYGLAKELKNLDKVQQQYQEKIDAFYDRFCSVDNGKASQYIGDLIHKDIKEQLEHHHHHH	soluble
MTQEIDIGKYHQLALQKQKEHRKFLATLKKKAPKNLDKIVQEVHTEVFREIDCTKCANCCKILGPLFTESDISRIAKHFRMRLPVFEDMYLRVDEDNDKVFKSMPCPFLGEDNLCFIYDVRPKACREFPHTDRKKIYQINHLTIQNTLICPAVYLFVEKLQERLALEHHHHHH	soluble
MGSDKIHHHHHHMLEELRTLVLFAEEGSIQNVARRLPLTQPAVTRQMQRLEDMLATTLLDRRQKPPRLTAAGLEVLARAKDILASVEALKAFAADAEPQGVLRVGLAHGLSDASIAGAIAGAAAAFPKISLRLKTGWSAELIEQFERGQLDMAIVLRPADHQGPDALGTERLCIIAQAGAHLTDARVPMPWVLSPEPCDARQTLLSSLGGERHPLIVAAEIQDPAMQMEWVRRGHGLGLMPLRLAARGLPDGLALVDLEDVDLSLQVVALRSPHLNRLAKAVEAIAQTVGEAIKIEA	not soluble
MNLLLFFLLSTVSVFAVVSGTVEETARDVIDALAHAPFEEWSSVFIETNDRIRAEVIPSTLFIPNSSANGSDDRHKLASYHIVPQRLEFADLLLKPSRSRLPTLLNGSSILVTNNSATSFSIDGVLIIELDIYVDSFIAIHRIAYPLDYTTYGGGSKLISKWPLFTFMLVTVVWFI	soluble
AIAELFTLGACRQVGKSCFVLKTSEGLVMLDCGLHPSYQDDRRYPNFSLAFSYGPLKAVFITHCHADHVGALPILTERWGYDGPIYMSEPTRKLSYYILEECVGSWGGDDEWTDSSRSEWSYTQREVESCLTKVTIMEPGQSISVGENVQVHSWMAGHVLGAYMFSIVVDNHRILYTGDFTSCPTFHLPPARVDDIPYPPDVILSEATYATSFKDGRLNNQVEFIQNVLDCLLDGGKVLVPVFAIGRAQELLLLLGK	soluble
SLTGQLHPAVRVADLLQHINQMKTAEGYGFKQEYESFFEGWDATKKKDKVKGSRQEPMPAYDRHRVKLHPMLGDPNADYINANYIDGYHRSNHFIATQGPKPEMVYDFWRMVWQEHCSSIVMITKLVEVGRVKCSRYWPEDSDTYGDIKIMLVKTETLAEYVVRTFALERRGYSARHEVRQFHFTAWPEHGVPYHATGLLAFIRRVKASTPPDAGPIVIHCSAGTGRTGCYIVLDVMLDMAECEGVVDIYNCVKTLCSRRVNMIQTEEQYIFIHDAILEACLCGETTIPVSEFKATYKEMIRIDPQSNSSQLREEFQTLNSVTPPLDVEECSIALLPRNRDKNRSMDVLPPDRCLPFLISTDGDSNNYINAALTDSYTRSAAFIVTLHPLQSTTPDFWRLVYDYGCTSIVMLNQLNQSNSAWPCLQYWPEPGRQQYGLMEVEFMSGTADEDLVARVFRVQNISRLQEGHLLVRHFQFLRWSAYRDTPDSKKAFLHLLAEVDKWQAESGDGRTIVHCLNGGGRSGTFCACATVLEMIRCHNLVDVFFAAKTLRNYKPNMVETMDQYHFCYDVALEYLEGLESR	not soluble
MGSDKIHHHHHHMPEQQKSVTGTSLFERYTLSQAYDEMFTAEGDIRPAYSELARLLCSISPAELQQRQRYADLTFLNQGITFTVYGNDAGVERVFPYDLLPRIIAADEWQHIERGLHQRIVALNLFLHDVYHNENILRDGIIPRHLVYSCRHYRREMRGLTVPRGVYTAIVGTDLVRLPDGQFVVLEDNLRVPSGVSYMLTNRAVMKRALPRLFGAYGVRPIDHYGQALLATLRALAPAHRPEPTIVLLTPGVFNSAYFEHTFLARQMGIELVEGRDLLVHNNIVYMRTTKGLQRVDVIYRRIDDDFLDPMIFRPDSVLGVPGLFNAYRAGTVVLANAIGTGVADDKAIYAYVPDIIRYYLGEEPILPNVTTYLCDRPDECAYVLEHLGDLVVKAVGESGGYDMLIGPHSTREEQAQFAERIRAQPRNYIAQPTLQLSQAPCFIDGVIEPRHVDLRPFVLFDGERTTIVPGGLTRVALRRGSLVVNSSQGGGSKDTWVLY	not soluble
MAANSLPQDISDVELVHLARAAMKRAHCPYSKFPVGAALLTESGEIVQGCNVENASYGGTICAERSAIVSAVSQGYTKFRAIAVVTELSEPASPCGLCRQFLVEFGDYKVVVGTASNNKILITSTRALLPFAFTPESLDTFEQEKASEAKGLKQDDATEHNVTVVS	not soluble
MIKIPRGTQDILPEDSKKWRYIENQLDELMTFYNYKEIRTPIFESTDLFARGVGDSTDVVQKEMYTFKDKGDRSITLRPEGTAAVVRSYIEHKMQGNPNQPIKLYYNGPMFRYERKQKGRYRQFNQFGVEAIGAENPSVDAEVLAMVMHIYQSFGLKHLKLVINSVGDMASRKEYNEALVKHFEPVIHEFCSDCQSRLHTDPMRILDCKVDRDKEAIKTAPRITDFLNEESKAYYEQVKAYLDDLGIPYTEDPNLVRGLDYYTHTAFELMMDNPNYDGAITTLCGGGRYNGLLELLDGPSETGIGFALSIERLLLALEEEGIELDIEENLDLFIVTMGDQADRYAVKLLNHLRHNGIKADKDYLQRKIKGQMKQADRLGAKFTIVIGDQELENNKIDVKNMTTGESETIELDALVEYFKK	soluble
MSTPTLSPSTEKLIPIIGLSVSGTFSPRPIATTAHSVVFKVDSQLYRREVIVKIVDRKSIPANVAEKFFPRELEITMKVRHPHIARCLAITRPAPTKFVIISDYYERGTLLEWILQKKRLKEHPLAATLFRQLIEAINYLHKRGIVHRDVKLENILIDGNGDIKLIDFGFARHIERRERSRSFCGTQPYTCPQITKYRPYEAYAADYYACGIVLFTMVTGKWPNMTENPNIYPEGYPSRSCRKLVSSLLDGNEMSRAGYDECVNSEWMGVHPVWMFANHAYFYEEVRGEDPNSSNCEMSEI	not soluble
